From patent US20210388087A1 (Chugai, published 2021)

These binders were tested against T1, CD3 epsilon homodimer protein (UniProt P07766 23-126) (assay: SPR, CD3 epsilon homodimer on chip, one-arm antibody as analyte;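 also: surface plasmon resonance at 25 °C with CD3 epsilon homodimer amine-coupled to a CM4 sensor chip, antibody injected as analyte, HBS-EP+ as running buffer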).
T1 construct: also called CD3 (CD3 epsilon)
T1 sequence (P07766 23-126): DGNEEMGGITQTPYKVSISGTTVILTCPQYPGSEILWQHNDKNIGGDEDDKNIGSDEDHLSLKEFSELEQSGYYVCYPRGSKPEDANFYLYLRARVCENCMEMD

Binder | KD ratio (KD of CE115HA000/KD of altered form)
CE115HA000 T57A (antibody, human IgG1, kappa, L234A L235A, N297A, name in Kabat numbering, one-arm antibody) heavy: QVQLVESGGGVVQPGRSLRLSCAASGFTFSNAWMHWVRQAPGKGLEWVAQIKAKSNNYAAYYAESVKGRFTISRDDSKNSLYLQMNSLKTEDTAVYYCRYVHYGAYYGVDAWGQGTTVTVSSASTKGPSVFPLAPSSKSTSGGTAALGCLVKDYFPEPVTVSWNSGALTSGVHTFPAVLQSSGLYSLSSVVTVPSSSLGTQTYICNVNHKPSNTKVDKKVEPKSCDKTHTCPPCPAPEAAGGPSVFLFPPKPKDTLMISRTPEVTCVVVDVSHEDPEVKFNWYVDGVEVHNAKTKPREEQYASTYRVVSVLTVLHQDWLNGKEYKCKVSNKALPAPIEKTISKAKGQPREPQVYTLPPSRCELTKNQVSLSCAVKGFYPSDIAVEWESNGQPENNYKTTPPVLDSDGSFFLVSKLTVDKSRWQQGNVFSCSVMHEALHNHYTQKSLSLSPDYKDDDDK EPKSSDKTHTCPPCPAPELLGGPSVFLFPPKPKDTLMISRTPEVTCVVVDVSHEDPEVKFNWYVDGVEVHNAKTKPREEQYNSTYRVVSVLTVLHQDWLNGKEYKCKVSNKALPAPIEKTISKAKGQPREPQVCTLPPSRDELTKNQVSLWCLVKGFYPSDIAVEWESNGQPENNYKTTPPVLDSDGSFFLYSKLTVDKSRWQQGNVFSCSVMHEALHNRYTQKSLSLSP light: DIVMTQSPLSLPVTPGEPASISCRSSQSLVHSNRNTYLHWYQQKPGQAPRLLIYKVSNRFSGVPDRFSGSGSGTDFTLKISRVEAEDVGVYYCGQGTQVPYTFGQGTKLEIKRTVAAPSVFIFPPSDEQLKSGTASVVCLLNNFYPREAKVQWKVDNALQSGNSQESVTEQDSKDSTYSLSSTLTLSKADYEKHKVYACEVTHQGLSSPVTKSFNRGEC | 0.87
CE115HA000 T57I (antibody, human IgG1, kappa, L234A L235A, N297A, name in Kabat numbering, one-arm antibody) heavy: QVQLVESGGGVVQPGRSLRLSCAASGFTFSNAWMHWVRQAPGKGLEWVAQIKAKSNNYAIYYAESVKGRFTISRDDSKNSLYLQMNSLKTEDTAVYYCRYVHYGAYYGVDAWGQGTTVTVSSASTKGPSVFPLAPSSKSTSGGTAALGCLVKDYFPEPVTVSWNSGALTSGVHTFPAVLQSSGLYSLSSVVTVPSSSLGTQTYICNVNHKPSNTKVDKKVEPKSCDKTHTCPPCPAPEAAGGPSVFLFPPKPKDTLMISRTPEVTCVVVDVSHEDPEVKFNWYVDGVEVHNAKTKPREEQYASTYRVVSVLTVLHQDWLNGKEYKCKVSNKALPAPIEKTISKAKGQPREPQVYTLPPSRCELTKNQVSLSCAVKGFYPSDIAVEWESNGQPENNYKTTPPVLDSDGSFFLVSKLTVDKSRWQQGNVFSCSVMHEALHNHYTQKSLSLSPDYKDDDDK EPKSSDKTHTCPPCPAPELLGGPSVFLFPPKPKDTLMISRTPEVTCVVVDVSHEDPEVKFNWYVDGVEVHNAKTKPREEQYNSTYRVVSVLTVLHQDWLNGKEYKCKVSNKALPAPIEKTISKAKGQPREPQVCTLPPSRDELTKNQVSLWCLVKGFYPSDIAVEWESNGQPENNYKTTPPVLDSDGSFFLYSKLTVDKSRWQQGNVFSCSVMHEALHNRYTQKSLSLSP light: DIVMTQSPLSLPVTPGEPASISCRSSQSLVHSNRNTYLHWYQQKPGQAPRLLIYKVSNRFSGVPDRFSGSGSGTDFTLKISRVEAEDVGVYYCGQGTQVPYTFGQGTKLEIKRTVAAPSVFIFPPSDEQLKSGTASVVCLLNNFYPREAKVQWKVDNALQSGNSQESVTEQDSKDSTYSLSSTLTLSKADYEKHKVYACEVTHQGLSSPVTKSFNRGEC | 0.81
CE115HA000 T57K (antibody, human IgG1, kappa, L234A L235A, N297A, name in Kabat numbering, one-arm antibody) heavy: QVQLVESGGGVVQPGRSLRLSCAASGFTFSNAWMHWVRQAPGKGLEWVAQIKAKSNNYAKYYAESVKGRFTISRDDSKNSLYLQMNSLKTEDTAVYYCRYVHYGAYYGVDAWGQGTTVTVSSASTKGPSVFPLAPSSKSTSGGTAALGCLVKDYFPEPVTVSWNSGALTSGVHTFPAVLQSSGLYSLSSVVTVPSSSLGTQTYICNVNHKPSNTKVDKKVEPKSCDKTHTCPPCPAPEAAGGPSVFLFPPKPKDTLMISRTPEVTCVVVDVSHEDPEVKFNWYVDGVEVHNAKTKPREEQYASTYRVVSVLTVLHQDWLNGKEYKCKVSNKALPAPIEKTISKAKGQPREPQVYTLPPSRCELTKNQVSLSCAVKGFYPSDIAVEWESNGQPENNYKTTPPVLDSDGSFFLVSKLTVDKSRWQQGNVFSCSVMHEALHNHYTQKSLSLSPDYKDDDDK EPKSSDKTHTCPPCPAPELLGGPSVFLFPPKPKDTLMISRTPEVTCVVVDVSHEDPEVKFNWYVDGVEVHNAKTKPREEQYNSTYRVVSVLTVLHQDWLNGKEYKCKVSNKALPAPIEKTISKAKGQPREPQVCTLPPSRDELTKNQVSLWCLVKGFYPSDIAVEWESNGQPENNYKTTPPVLDSDGSFFLYSKLTVDKSRWQQGNVFSCSVMHEALHNRYTQKSLSLSP light: DIVMTQSPLSLPVTPGEPASISCRSSQSLVHSNRNTYLHWYQQKPGQAPRLLIYKVSNRFSGVPDRFSGSGSGTDFTLKISRVEAEDVGVYYCGQGTQVPYTFGQGTKLEIKRTVAAPSVFIFPPSDEQLKSGTASVVCLLNNFYPREAKVQWKVDNALQSGNSQESVTEQDSKDSTYSLSSTLTLSKADYEKHKVYACEVTHQGLSSPVTKSFNRGEC | 1.22
CE115HA000 T57N (antibody, human IgG1, kappa, L234A L235A, N297A, name in Kabat numbering, one-arm antibody) heavy: QVQLVESGGGVVQPGRSLRLSCAASGFTFSNAWMHWVRQAPGKGLEWVAQIKAKSNNYANYYAESVKGRFTISRDDSKNSLYLQMNSLKTEDTAVYYCRYVHYGAYYGVDAWGQGTTVTVSSASTKGPSVFPLAPSSKSTSGGTAALGCLVKDYFPEPVTVSWNSGALTSGVHTFPAVLQSSGLYSLSSVVTVPSSSLGTQTYICNVNHKPSNTKVDKKVEPKSCDKTHTCPPCPAPEAAGGPSVFLFPPKPKDTLMISRTPEVTCVVVDVSHEDPEVKFNWYVDGVEVHNAKTKPREEQYASTYRVVSVLTVLHQDWLNGKEYKCKVSNKALPAPIEKTISKAKGQPREPQVYTLPPSRCELTKNQVSLSCAVKGFYPSDIAVEWESNGQPENNYKTTPPVLDSDGSFFLVSKLTVDKSRWQQGNVFSCSVMHEALHNHYTQKSLSLSPDYKDDDDK EPKSSDKTHTCPPCPAPELLGGPSVFLFPPKPKDTLMISRTPEVTCVVVDVSHEDPEVKFNWYVDGVEVHNAKTKPREEQYNSTYRVVSVLTVLHQDWLNGKEYKCKVSNKALPAPIEKTISKAKGQPREPQVCTLPPSRDELTKNQVSLWCLVKGFYPSDIAVEWESNGQPENNYKTTPPVLDSDGSFFLYSKLTVDKSRWQQGNVFSCSVMHEALHNRYTQKSLSLSP light: DIVMTQSPLSLPVTPGEPASISCRSSQSLVHSNRNTYLHWYQQKPGQAPRLLIYKVSNRFSGVPDRFSGSGSGTDFTLKISRVEAEDVGVYYCGQGTQVPYTFGQGTKLEIKRTVAAPSVFIFPPSDEQLKSGTASVVCLLNNFYPREAKVQWKVDNALQSGNSQESVTEQDSKDSTYSLSSTLTLSKADYEKHKVYACEVTHQGLSSPVTKSFNRGEC | 0.9
